Laboratory results: US20110166072A1

Legend:
[1] = molecular target: integrin αvβ3 (on rat osteoclast precursors) (rat); assay: cell-based or functional assay
[2] = molecular target: platelet glycoprotein αIIbβ3 (on human platelets) (human) (UniProt P08514); assay: cell-based or functional assay
[3] = molecular target: integrin αIIbβ3 (on CHO-αIIbβ3 cells) (UniProt P08514); assay: cell adhesion inhibition: CHO-αIIbβ3 cells on coated fibrinogen

## HSA-RD (human serum albumin-RD fusion protein) (from UniProt P30403 408-475)
[1]
  Osteoclastogenesis IC50: 0.00668 µM
[2]
  Platelet aggregation IC50: 0.438 µM

## AKGDWN (from UniProt P30403 408-475) (ligand; other documents disagree on this pair)
[3]
  IC50: 0.069 µM

## PRPDDL (from UniProt P30403 408-475) (ligand; other documents disagree on this pair)
[3]
  IC50: 13.6 µM

## PRPDDL (from UniProt P30403 408-475) (ligand)
[2]
  Platelet aggregation IC50: 3.53 µM

## HSA-RD (human serum albumin-RD fusion protein) (from UniProt P30403 408-475) (other; other documents disagree on this pair)
[3]
  IC50: 2.75 µM

## PRGEMP (from UniProt P30403 408-475) (ligand)
[1]
  Osteoclastogenesis IC50: 68.2 µM
[2]
  Platelet aggregation IC50: 4.91 µM

## AKGDWN (from UniProt P30403 408-475) (ligand)
[1]
  Osteoclastogenesis IC50: 78.4 µM
[2]
  Platelet aggregation IC50: 0.138 µM
